Measured values as given in patent US20240010750A1 (Bayer, published 2024).

Key:
[1] = molecular target: T1, cynomolgus alpha2-Antiplasmin (cynomolgus (Macaca fascicularis), UniProt P08697 28-491 (human entry)); assay: ELISA, coated antigen (FIG. 6.1 legend)
T1 construct: Made in house in the same way as the rabbit protein; also called cynomolgus A2AP; Macaca fascicularis A2AP
T1 chain: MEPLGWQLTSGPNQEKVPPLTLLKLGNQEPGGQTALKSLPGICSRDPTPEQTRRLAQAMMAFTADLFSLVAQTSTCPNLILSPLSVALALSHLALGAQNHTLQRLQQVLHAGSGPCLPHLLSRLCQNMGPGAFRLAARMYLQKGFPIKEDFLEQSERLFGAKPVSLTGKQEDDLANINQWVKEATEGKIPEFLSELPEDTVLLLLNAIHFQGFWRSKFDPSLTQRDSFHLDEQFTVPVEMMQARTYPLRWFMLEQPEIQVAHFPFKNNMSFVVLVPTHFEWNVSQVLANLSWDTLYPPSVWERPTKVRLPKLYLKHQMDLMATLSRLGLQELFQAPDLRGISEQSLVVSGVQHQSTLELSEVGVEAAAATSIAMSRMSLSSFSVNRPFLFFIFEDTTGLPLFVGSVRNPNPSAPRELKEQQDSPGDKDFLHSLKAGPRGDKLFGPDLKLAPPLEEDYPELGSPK

[2] = molecular target: T1, cynomolgus alpha2-Antiplasmin; assay: ELISA (Example 3): antigen coated at 1 ug/ml, detection with anti-human lambda light chain-peroxidase and Amplex Red, RFU
Procedure: A standard ELISA format was used for analyzing the binding affinity of Fabs of this invention to human and rabbit alpha-2-Antiplasmin, respectively. Antigens were coated to black 384 well Maxisorp microtiter plates (Nunc; catalogue number 460518), diluted to a concentration of 1 μg/ml in 1× Coating Buffer (Candor Bioscience; catalogue number 121125). Plates were incubated overnight at 4° C. After overnight incubation, plates were washed 2× with 50 μl/well using PBS+0.05% Tween 20. Following this, 50 μl/well of blocking buffer (Smart Block; Candor Bioscience; catalogue number 113500) was added and the plates were incubated for 1 hour at room temperature. Afterwards, plates were washed for 3× using […] PBS+0.05% Tween 20 buffer. Fabs of this invention were added at different concentrations in a final volume of 30 μl/well. Plates were incubated for 1 hour at room temperature. Following this incubation step, plates were washed for 3× using 50 μl/well of a PBS+0.05% Tween 20 buffer. For the detection of bound Fabs and full-length antibodies, the anti-Human Lambda Light Chains (Bound and Free)—Peroxidase antibody (Sigma; catalogue number A5175) was diluted by the factor of 1:10.000 in 10% Blocking Buffer. 30 μl/well of this diluted detection antibody was added and plates are incubated for 1 hour at room temperature. […]

[3] = molecular target: T2, human alpha2-Antiplasmin (human, UniProt P08697 40-491); assay: cell-based or functional assay
T2 sequence: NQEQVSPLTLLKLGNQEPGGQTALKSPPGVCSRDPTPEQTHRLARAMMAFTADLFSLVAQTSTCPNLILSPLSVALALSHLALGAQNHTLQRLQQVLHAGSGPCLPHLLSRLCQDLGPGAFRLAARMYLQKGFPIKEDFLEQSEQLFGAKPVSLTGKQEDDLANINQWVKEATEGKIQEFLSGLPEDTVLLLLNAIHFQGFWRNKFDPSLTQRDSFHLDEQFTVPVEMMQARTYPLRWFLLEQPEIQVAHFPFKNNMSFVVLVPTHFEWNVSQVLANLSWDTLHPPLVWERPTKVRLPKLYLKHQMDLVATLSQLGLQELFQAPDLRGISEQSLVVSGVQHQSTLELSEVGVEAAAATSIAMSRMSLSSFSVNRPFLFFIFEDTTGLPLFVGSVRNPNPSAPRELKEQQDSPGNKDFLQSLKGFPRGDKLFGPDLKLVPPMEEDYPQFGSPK

[4] = molecular target: T3, rabbit alpha2-Antiplasmin (rabbit (Oryctolagus cuniculus)); assay: cell-based or functional assay
T3 chain: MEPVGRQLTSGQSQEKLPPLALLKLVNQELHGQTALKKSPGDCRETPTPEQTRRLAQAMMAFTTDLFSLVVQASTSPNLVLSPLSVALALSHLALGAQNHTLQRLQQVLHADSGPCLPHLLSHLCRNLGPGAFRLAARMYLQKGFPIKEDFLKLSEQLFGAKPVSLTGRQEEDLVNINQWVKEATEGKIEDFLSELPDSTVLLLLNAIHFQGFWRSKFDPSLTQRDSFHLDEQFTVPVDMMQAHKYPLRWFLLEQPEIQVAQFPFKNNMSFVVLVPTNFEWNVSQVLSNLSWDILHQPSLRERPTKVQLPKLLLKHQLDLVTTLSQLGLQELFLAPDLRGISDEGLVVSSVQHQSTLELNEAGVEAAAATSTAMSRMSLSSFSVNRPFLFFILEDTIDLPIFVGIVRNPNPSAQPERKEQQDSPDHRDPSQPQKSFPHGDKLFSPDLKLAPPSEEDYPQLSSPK

[5] = molecular target: T1, cynomolgus alpha2-Antiplasmin; assay: cell-based or functional assay

- EC50 [1]: 99 nM
- EC50 (read off the curve) [2]: ~100 nM
- function blocking activity IC50, 1st exp. (FIG. 5) [3]: 170 nM
- function blocking activity IC50, 2nd exp. [3]: 180 nM
- function blocking activity IC50, 3rd exp. [3]: 180 nM
- function blocking activity EC50 (FIG. 5 legend) [4]: 1.4 nM
- printed as 'binding activity' in the sentence on function blocking (IC50), 1st exp. [4]: 14 nM
- printed as 'binding activity' in the sentence on function blocking (IC50), 2nd exp. [4]: 13 nM
- printed as 'binding activity' in the sentence on function blocking (IC50), 3rd exp. [4]: 15 nM
- function blocking activity IC50, 1st exp. (FIG. 6.2) [5]: 160 nM
- function blocking activity IC50, 2nd exp. [5]: 160 nM
B1: TPP-12387 hIgG1 (antibody, V domains shown)
VH: EVQLLESGGGLVQPGGSLRLSCAASGFTFDDYAMSWVRQAPGKGLEWVSAIGTGGGTYYADSVKGRFTISRDNSKNTLYLQMNSLRAEDTAVYYCAREYYDSSGYYHLDYWGQGTLVTVSS
VL: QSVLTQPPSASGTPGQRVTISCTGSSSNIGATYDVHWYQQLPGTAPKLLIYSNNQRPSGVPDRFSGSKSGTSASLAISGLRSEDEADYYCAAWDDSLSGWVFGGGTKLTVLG
notes: Fully human IgG1 lambda from the BioInvent n-CoDeR Fab lambda library; parental lead antibody
